Target: mouse serum proteins (serum protein binding assay) (mouse)
Assay: ultrafiltration of serum

B1: 800-G-Abz4-t-BBN (peptide)
peptide: GQWAVGHLM
modifications: IRDye800 (800CW) on the N-terminus; 4-aminobenzoyl (Abz4) between the linker G and Q; C-terminal amide
percent serum protein bound: > 90%

From article PMC5867903
